The text below walks through data of patent US20140147453.

The target of data set [1] is T1, MFK25 peptide (mdhFas-1-GPLGIAG-QERGDSLA) (UniProt P82198).
T1 sequence: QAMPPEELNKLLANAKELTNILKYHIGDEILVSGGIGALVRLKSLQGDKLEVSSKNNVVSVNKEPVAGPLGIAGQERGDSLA

Data set [2] deals with T2, MFK23 peptide (mdhFas-1-GPLGVRG-QERGDSLA) (UniProt P82198).
T2 sequence: T1 sequence with I72V, A73R

The target in data set [3] is T3, MFK24 peptide (mdhFas-1-GPQGIAG-QERGDSLA) (UniProt P82198).
T3 sequence: T1 sequence with L70Q

Data set [4] has as its target T4, MFK24 peptide (mdhFas-1-GPQGIAG-QERGDSLA), P82198.
T4 chain: T1 sequence with L70Q

Where a chain is given by its changes, count along the chain named.

cathepsin L: the “enzymatic digestion test (immunoblot with anti-Histidine or anti-Bigh3)” value (from here on “enzymatic digestion test”) in data set [1] was “MFK25 was not cleaved through treatment with cathepsin K, L or D”; in data set [2] it was “MFK23 was not cleaved through treatment with cathepsin K, L or D”. Take cathepsin D: the “enzymatic digestion test” value is given as “MFK25 was not cleaved through treatment with cathepsin K, L or D” in data set [1] and “MFK23 was not cleaved through treatment with cathepsin K, L or D” in data set [2]. In the case of MMP-2 (matrix metalloproteinase 2), the “enzymatic digestion test” value in data set [1] was “MFK25 was concentration-dependently cleaved through treatment with MMP-1, MMP-2 and MMP-3”; in data set [2], “MFK23 was concentration-dependently cleaved through treatment with MMP-2”.

As to MMP-1 (matrix metalloproteinase 1), the “enzymatic digestion test” value was “MFK25 was concentration-dependently cleaved through treatment with MMP-1, MMP-2 and MMP-3, and especially, well cleaved by MMP-1 and MMP-3” in data set [1]; “MFK24 was concentration-dependently cleaved through treatment with MMP-1” in data set [3]. For MMP-3 (matrix metalloproteinase 3), the “enzymatic digestion test” value in data set [1] was “MFK25 was concentration-dependently cleaved through treatment with MMP-1, MMP-2 and MMP-3, and especially, well cleaved by MMP-1 and MMP-3”.

B1: cathepsin K (enzyme, UniProt P43235 115-329, looked up, species assumed)
Cathepsin K: APDSVDYRKKGYVTPVKNQGQCGSCWAFSSVGALEGQLKKKTGKLLNLSPQNLVDCVSENDGCGGGYMTNAFQYVQKNRGIDSEDAYPYVGQEESCMYNPTGKAAKCRGYREIPEGNEKALKRAVARVGPVSVAIDASLTSFQFYSKGVYYDESCNSDNLNHAVLAVGYGIQKGNKHWIIKNSWGENWGNKGYILMARNKNNACGIANLASFPKM
On to B1, for which the “enzymatic digestion test” value in data set [1] is reported as “MFK25 was not cleaved through treatment with cathepsin K, L or D”; in data set [2], “MFK23 was not cleaved through treatment with cathepsin K, L or D”.

B2: MMP-1 secreted from a human Synovial membrane cell (human FLS stimulated with IL-1β) (protein)
chain: FPATLETQEQDVDLVQKYLEKYYNLKNDGRQVEKRRNSGPVVEKLKQMQEFFGLKVTGKPDAETLKVMKQPRCGVPDVAQFVLTEGNPRWEQTHLTYRIENYTPDLPRADVDHAIEKAFQLWSNVTPLTFTKVSEGQADIMISFVRGDHRDNSPFDGPGGNLAHAFQPGPGIGGDAHFDEDERWTNNFREYNLHRVAAHELGHSLGLSHSTDIGALMYPSYTFSGDVQLAQDDIDGIQAIYGRSQNPVQPIGPQTPKACDSKLTFDAITTIRGEVMFFKDRFYMRTNPFYPEVELNFISVFWPQLPNGLEAAYEFADRDEVRFFKGNKYWAVQGQNVLHGYPKDIYSSFGFPRTVKHIDAALSEENTGKTYFFVANKYWRYDEYKRSMDPGYPKMIAHDFPGIGHKVDAVFMKDGFFYFFHGTRQYKFDPKTKRILTLQKANSWFNCRKN
For B2, the “culture analysis of enzymatic digestion (human FLS + IL-1β, 1 uM peptide, 3 and 6 hours; immunoblot anti-histidine versus anti-βig-h3)” value in data set [4] is “in the use of the anti-histidine antibody, MFK24 was measured in a smaller amount than that in the use of the anti-βig-h3 antibody”.
